Results from the supplement of paper PMC9170038.

Tested on: K4 kissing-loop RNA reporter
Assay: apparent KD of K4 kissing-loop reporter; higher = weaker reporter binding
Settings: Eterna round: R107
Method: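 RNA-MaP round R107: designed RNA switches with theophylline, tryptophan, arginine or FMN aptamers are transcribed on-chip within common flanks. They are titrated with a labelled K4 kissing-loop RNA reporter in RNA-MaP buffer (100 mM Tris pH 7.5, 80 mM KCl, 4 mM MgCl2), without ligand or with the indicated ligand. Median apparent KD per design.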

[1] = input ligand: theophylline 20 uM
[2] = input ligand: tryptophan 2.4 mM
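Further: bound reporter read as fluorescence of individual clusters on recovered sequencing chips by microscopy, with normalized cluster intensities fitted with a binding model.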

Row | Sequence | apparent KD of K4 kissing-loop reporter (input ligand: FMN 200 uM) | apparent KD of K4 kissing-loop reporter (input ligand: arginine 13.2 mM) | apparent KD of K4 kissing-loop reporter (input ligand: none) | apparent KD of K4 kissing-loop reporter [1] | apparent KD of K4 kissing-loop reporter [2]
1 | UCGCAAAAGUCGGCCGCCACUCCGGGCCCUAUAAAUGGGCGCAGUGAUGUUGCGGCUAGGCCUCUGAGGACCGGGACUUUGAAGA [Esesbior] | 101 nM | 25 nM | 23.9 nM | 102 nM | 131 nM
2 | UCGCCAAAGUCGGCCGCCACUCCGGGCCCUAUAAAUGGGCGCAGUGAUGUUGCGGCUAGGCCUCUGAGGACCGGGACUUUGUAAA [Tiesgeza] | 119 nM | 85.2 nM | 68.9 nM | 32.5 nM | 133 nM
3 | UCUGGAGCAUAUGAUACCAGCAGUGAGAGACAGGAAGUAUAGUGAUGUUAUAUGAGAGAAUGCCCUUGGCAGCGUGUGUAGUGGG [SSTheophylB.N] | 174 nM | 137 nM | 128 nM | 170 nM | 104 nM
4 | UGACAUUGCUCAGAUACCAGACUUGAGGAUCACCCAAGUGCCAAAACGUACUAAAUAAAAGUCCCUUGGCAGCUGAGCAAUGUCU [TheoBX 13] | 49.2 nM | 45.9 nM | 40.6 nM | 88 nM | 54.1 nM
5 | UGACUGGACUGAAGGAGCGAGCGAGACAAAGUCUCGAAAAUUCAGUGAUGUUGAUAUAUAACUCAGGUAGGUCGCAGUCUAGUCU [ArgBS 5 #SwitchBubble #StaticStem] | 447 nM | 433 nM | 477 nM | 464 nM | 431 nM
6 | UGACUGGACUGAAGGAGCGCGCGAGACAAAGUCUCGAACUCUUAGUGAUGUUAAGAAAUAACGCAGGUAGGUCGCAGUCUAGUCU | 138 nM | 122 nM | 147 nM | 133 nM | 150 nM
7 | UGACUGGACUGAAGGAGCGCUAAACUCCUAGUGAUGUUAGGGAAACGAGACAAAGUCUCGAGGCAGGUAGGUCGCAGUCUAGUCU [FiskerMod 1 - Jieux - Same State - Arginine B] | 254 nM | 199 nM | 261 nM | 265 nM | 244 nM
8 | UGACUGGACUGAAGGAGCGCUGAACUCCUAGUGAUGUUAGGAAAACGAGACAAAGUCUCGCGGCAGGUAGGUCGCAGUCUAGUCU | 130 nM | 85.9 nM | 108 nM | 111 nM | 99.2 nM
9 | UGACUGGACUGAAGGAGCGCUUAACUCCUAGUGAUGUUAGGAAAACGAGACAAAGUCUCGAAGCAGGUAGGUCGCAGUCUAGUCU | 152 nM | 123 nM | 151 nM | 158 nM | 132 nM
10 | UGACUGGACUGAAGGAGCGGGCGAGACAAAGUCUCGAACUCUUAGUGAUGUUAGGAAAUAACCCAGGUAGGUCGCAGUCUAGUCU | 243 nM | 132 nM | 178 nM | 216 nM | 188 nM
11 | UGACUGGACUGAAGGAGCGUUCAGGUAGGUCGCAUAGGAGUGAUGUUCCAAUGAAGGAGCGAGCAGGUAGGUCGCAGUCUAGUCU [ArgBS 13 #DoubleAptamer #SwitchBubble] | 157 nM | 219 nM | 243 nM | 205 nM | 158 nM
12 | UGACUGGAUGGAAGGAGCGCUAAACUCCUAGUGAUGUUAGGGAUACGAGGCAAAGCCUCGAAGCAGGUAGGUCGCCAUCUAGUCU [FiskerMod 21 - Jieux - Same State - Arginine B] | 171 nM | 123 nM | 146 nM | 171 nM | 159 nM
13 | UGACUGGAUGGAAGGAGCGCUAAACUCCUAGUGAUGUUAGGGAUAUGAGGCAAAGCCUUGAAGCAGGUAGGUCGCCAUCUAGUCU [FiskerMod 26 - Jieux - Same State - Arginine B] | 141 nM | 126 nM | 146 nM | 146 nM | 142 nM
14 | UGAUACCAGACGGCCGCCACUACACCAGUCAAAGACUGGAUGUGAUGUCUGACCAGUGAUGUUGGUAGGACCGGGUCUGGUAUCU [TrypBX 6 #Palindromic #SwitchBubble #StaticStem] | 246 nM | 303 nM | 428 nM | 450 nM | 305 nM
15 | UGAUACCAGACGGCCGCCACUACACCAGUCAAAGACUGGAUGUGAUGUUCGACCAGUGAUGUUGGUAGGACCGGGUCUGGUAUCU [TrypBX 7 #Palindromic #SwitchBubble #StaticStem] | 133 nM | 121 nM | 127 nM | 109 nM | 147 nM
16 | UGAUACCAGACGGCCGCCACUCCCGCAGGUCAAAGACCUGCGAAGAAGGUUUUUUAGUGAUGUUGGAGGACCGGGUCUGGUAUCU [FiskerMod 20 - Jieux - Exclusion - Tryptophan B] | 311 nM | 92.6 nM | 257 nM | 140 nM | 689 nM
